According to US20240016900:

Target: Human type I collagen, P02452
Sequence (P02452 162-1218, chain 1 of 2): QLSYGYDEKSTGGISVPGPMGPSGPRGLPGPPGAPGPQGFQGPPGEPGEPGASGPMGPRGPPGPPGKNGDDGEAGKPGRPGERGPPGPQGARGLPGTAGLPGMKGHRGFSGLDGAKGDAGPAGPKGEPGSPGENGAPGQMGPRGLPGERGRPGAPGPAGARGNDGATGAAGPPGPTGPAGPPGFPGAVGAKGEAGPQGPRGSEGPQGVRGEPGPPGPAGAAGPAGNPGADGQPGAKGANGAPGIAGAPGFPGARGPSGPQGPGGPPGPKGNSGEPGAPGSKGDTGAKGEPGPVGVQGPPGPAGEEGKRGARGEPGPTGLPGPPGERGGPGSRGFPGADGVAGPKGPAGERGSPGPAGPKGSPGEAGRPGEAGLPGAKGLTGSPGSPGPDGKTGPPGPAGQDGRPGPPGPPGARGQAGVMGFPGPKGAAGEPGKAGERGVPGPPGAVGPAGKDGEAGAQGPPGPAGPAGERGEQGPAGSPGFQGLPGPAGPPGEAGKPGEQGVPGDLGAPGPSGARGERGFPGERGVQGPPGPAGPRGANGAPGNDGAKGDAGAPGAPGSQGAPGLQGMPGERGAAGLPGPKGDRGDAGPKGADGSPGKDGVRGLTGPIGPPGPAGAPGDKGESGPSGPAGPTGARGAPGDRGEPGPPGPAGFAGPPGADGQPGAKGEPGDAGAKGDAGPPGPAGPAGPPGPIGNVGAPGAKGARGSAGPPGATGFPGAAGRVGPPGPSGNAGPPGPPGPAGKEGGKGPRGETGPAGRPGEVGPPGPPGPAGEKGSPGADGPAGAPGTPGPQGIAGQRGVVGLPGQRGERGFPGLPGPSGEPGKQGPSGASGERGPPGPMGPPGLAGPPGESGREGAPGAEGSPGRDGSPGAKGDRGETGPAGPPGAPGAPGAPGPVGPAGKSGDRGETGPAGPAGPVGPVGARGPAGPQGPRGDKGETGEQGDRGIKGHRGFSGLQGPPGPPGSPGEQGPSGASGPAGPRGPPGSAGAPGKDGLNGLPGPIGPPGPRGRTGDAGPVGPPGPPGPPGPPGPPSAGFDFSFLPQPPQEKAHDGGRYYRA
Sequence (chain, as listed by the source, chain 2 of 2): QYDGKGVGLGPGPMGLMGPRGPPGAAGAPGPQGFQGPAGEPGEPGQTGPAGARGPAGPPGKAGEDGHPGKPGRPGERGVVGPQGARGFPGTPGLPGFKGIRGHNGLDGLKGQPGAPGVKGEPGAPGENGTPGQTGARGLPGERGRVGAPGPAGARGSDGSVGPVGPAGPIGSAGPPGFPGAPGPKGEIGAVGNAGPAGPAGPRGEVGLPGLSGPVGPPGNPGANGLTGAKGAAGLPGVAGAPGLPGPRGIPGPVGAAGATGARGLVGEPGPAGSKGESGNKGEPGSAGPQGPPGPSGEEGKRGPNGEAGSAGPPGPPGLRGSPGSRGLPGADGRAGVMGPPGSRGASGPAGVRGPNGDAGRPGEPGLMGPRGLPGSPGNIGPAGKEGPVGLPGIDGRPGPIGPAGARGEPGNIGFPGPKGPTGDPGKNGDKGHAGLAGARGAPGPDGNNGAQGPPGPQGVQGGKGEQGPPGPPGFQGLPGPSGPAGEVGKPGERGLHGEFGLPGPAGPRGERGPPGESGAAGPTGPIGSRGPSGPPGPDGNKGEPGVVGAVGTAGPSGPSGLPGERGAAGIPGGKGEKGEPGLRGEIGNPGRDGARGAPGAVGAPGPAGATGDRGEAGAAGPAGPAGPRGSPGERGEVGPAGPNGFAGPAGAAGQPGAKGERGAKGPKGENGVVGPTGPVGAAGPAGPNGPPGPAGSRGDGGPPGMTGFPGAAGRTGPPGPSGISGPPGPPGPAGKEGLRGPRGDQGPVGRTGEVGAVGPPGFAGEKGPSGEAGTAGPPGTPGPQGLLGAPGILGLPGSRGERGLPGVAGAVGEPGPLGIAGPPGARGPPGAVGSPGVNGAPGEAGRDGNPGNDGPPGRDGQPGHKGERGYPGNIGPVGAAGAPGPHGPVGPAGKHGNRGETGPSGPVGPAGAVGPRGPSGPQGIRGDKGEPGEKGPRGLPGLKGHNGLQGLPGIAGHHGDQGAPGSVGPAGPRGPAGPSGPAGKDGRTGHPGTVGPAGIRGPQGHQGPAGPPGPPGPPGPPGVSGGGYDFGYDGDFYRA

B1: MMP1 (matrix metalloproteinase 1) (protein)
chain: FVLTEGNPRWEQTHLTYRIENYTPDLPRADVDHAIEKAFQLWSNVTPLTFTKVSEGQADIMISFVRGDHRDNSPFDGPGGNLAHAFQPGPGIGGDAHFDEDERWTNNFREYNLHRVAAHELGHSLGLSHSTDIGALMYPSYTFSGDVQLAQDDIDGIQAIYGRSQNPVQPIGPQTPKACDSKLTFDAITTIRGEVMFFKDRFYMRTNPFYPEVELNFISVFWPQLPNGLEAAYEFADRDEVRFFKGNKYWAVQGQNVLHGYPKDIYSSFGFPRTVKHIDAALSEENTGKTYFFVANKYWRYDEYKRSMDPGYPKMIAHDFPGIGHKVDAVFMKDGFFYFFHGTRQYKFDPKTKRILTLQKANSWFNCRKN
collagen fiber, fibril and network structure on a substrate, by atomic force microscopy: MMP-treated samples, however, showed a substantial amount of disorganized collagen and little remaining fiber/fibril formation | collagen fiber, fibril and network structure on a substrate, by scanning electron microscopy: MMP treatment of the substrate resulted in a readily observable amount of disruption of the collagen fibers, fibrils and network
